# Assay results published in US20250043302A1, “MUTATED HYDROXYPHENYLPYRUVATE DIOXYGENASE POLYPEPTIDE, AND CODING GENE AND USE THEREOF” (BEIJING DABEINONG BIOTECHNOLOGY CO., LTD., priority 2021, published 2025).
# B1: AtHPPDm-F372A-F383Y-02: nucleotide sequence encoding Arabidopsis thaliana HPPD with F372A+F383Y; vector DBN11798 (nucleic acid)
# DNA: ATGGGACATCAGAATGCTGCTGTATCAGAAAATCAAAATCATGATGATGGAGCCGCCTCCTCACCAGGGTTTAAGTTGGTTGGGTTCTCCAAGTTTGTACGGAAGAACCCAAAATCCGACAAGTTCAAGGTTAAACGCTTCCACCACATTGAATTCTGGTGCGGCGACGCCACCAATGTTGCTCGGCGTTTTTCATGGGGTTTAGGCATGAGATTCTCAGCAAAGAGTGACCTGAGCACCGGCAACATGGTTCATGCTAGCTATCTCTTAACATCTGGAGATTTGAGGTTTCTTTTCACGGCGCCGTACTCACCATCACTCTCCGCCGGCGAGATCAAACCCACCACGACTGCAAGCATACCTTCATTTGATCATGGTAGTTGCAGATCCTTCTTCTCGTCGCACGGCCTAGGGGTGCGCGCGGTCGCCATCGAAGTTGAAGATGCAGAATCAGCGTTTAGTATCAGCGTGGCAAATGGAGCTATTCCTTCCTCCCCTCCAATTGTCCTCAATGAGGCTGTAACTATTGCCGAGGTGAAGTTGTATGGAGATGTTGTGCTGAGATATGTTTCTTACAAGGCAGAGGACACTGAGAAATCTGAATTTTTGCCTGGTTTTGAAAGGGTCGAGGATGCTTCAAGTTTTCCTCTTGATTACGGCATACGACGGTTGGATCACGCGGTTGGAAATGTACCAGAACTTGGGCCGGCGCTCACTTATGTGGCTGGTTTCACTGGATTCCATCAATTTGCTGAGTTCACAGCTGATGATGTTGGGACTGCTGAAAGTGGGTTGAACTCTGCAGTCCTCGCCTCTAATGATGAAATGGTGCTCCTCCCGATCAACGAGCCTGTGCATGGCACCAAAAGGAAATCACAAATACAGACATATCTTGAGCACAATGAAGGTGCAGGGCTTCAACATCTTGCACTGATGTCTGAAGACATTTTCCGTACGCTGAGAGAGATGAGGAAGAGAAGTAGTATTGGTGGATTTGACTTCATGCCTTCTCCCCCACCAACTTACTACCAGAACTTGAAGAAGAGGGTTGGTGATGTGCTATCTGATGACCAGATCAAGGAGTGTGAAGAATTGGGCATTCTTGTTGATCGGGACGACCAAGGAACATTACTGCAGATAGCCACAAAACCACTTGGTGACCGCCCCACTATTTATATTGAGATCATACAAAGAGTCGGCTGCATGATGAAGGATGAGGAAGGAAAAGCATATCAATCTGGTGGTTGTGGCGGCTTTGGGAAAGGAAACTTCTCTGAGCTGTTCAAATCCATCGAGGAGTATGAGAAGACCTTGGAGGCCAAGCAGCTCGTGGGTTGA
# modifications: AtHPPDm-F372A-F383Y-02 Nucleotide Sequence
# notes: vector DBN11798
# How the values were obtained:
# Assay type in all cases: in vivo
# [1] = system: Arabidopsis thaliana T1 plants; test: Topramezone tolerance of transgenic Arabidopsis thaliana T1 plants (spray, bleached leaf area grade, damage score); details: Table 13; for Classification and statistics of the grade of pesticide damage Grade 0: number of plants at grade 0; for Classification and statistics of the grade of pesticide damage Grade 1: number of plants at grade 1; for Classification and statistics of the grade of pesticide damage Grade 2: number of plants at grade 2; for Classification and statistics of the grade of pesticide damage Grade 3: number of plants at grade 3; for Scores: pesticide damage score
# Outline: (§1)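 Read-out: per-plant damage grade 0–3 from proportion of bleached leaf area at 7 DAT (1 <50%, 2 >50%, 3 100%). Plants were T1 transformants, glufosinate-selected, plus wild-type CK, sprayed 18 days post-sowing. Rates: topramezone 25–200, isoxaflutole 35–280, mesotrione 52.5–420 g ai/ha.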
# [2] = system: Arabidopsis thaliana T1 plants; test: Isoxaflutole tolerance of transgenic Arabidopsis thaliana T1 plants (spray, bleached leaf area grade, damage score); details: for Classification and statistics of the grade of pesticide damage Grade 0 / Classification and statistics of the grade of pesticide damage Grade 1 / Classification and statistics of the grade of pesticide damage Grade 2 / Classification and statistics of the grade of pesticide damage Grade 3: number of plants in grade;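 as to Scores: Weighted damage index from 0 to 100 where higher means more damage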
# Outline: as §1
# [3] = system: Arabidopsis thaliana T1 plants; test: Mesotrione tolerance of transgenic Arabidopsis thaliana T1 plants (spray, bleached leaf area grade, damage score); design: Scores: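 damage score 0-100 computed as Σ(N×S)/(T×M)×100 over grades 0-3 with higher meaning more damage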; details: for Classification and statistics of the grade of pesticide damage Grade 0 / Classification and statistics of the grade of pesticide damage Grade 1 / Classification and statistics of the grade of pesticide damage Grade 2 / Classification and statistics of the grade of pesticide damage Grade 3: number of plants in grade
# Outline: as §1
molecule,measurement,setting,value
B1,Resistance evaluation,[1]; topramezone 25 g ai/ha (1×),Poorly
same,Classification and statistics of the grade of pesticide damage Grade 0,[1]; topramezone 25 g ai/ha (1×),4
same,Classification and statistics of the grade of pesticide damage Grade 1,[1]; topramezone 25 g ai/ha (1×),4
same,Classification and statistics of the grade of pesticide damage Grade 2,[1]; topramezone 25 g ai/ha (1×),8
same,Classification and statistics of the grade of pesticide damage Grade 3,[1]; topramezone 25 g ai/ha (1×),0
same,Scores,[1]; topramezone 25 g ai/ha (1×),42
same,Resistance evaluation,[1]; topramezone 100 g ai/ha (4×),Non-resistant
same,Classification and statistics of the grade of pesticide damage Grade 0,[1]; topramezone 100 g ai/ha (4×),0
same,Classification and statistics of the grade of pesticide damage Grade 1,[1]; topramezone 100 g ai/ha (4×),0
same,Classification and statistics of the grade of pesticide damage Grade 2,[1]; topramezone 100 g ai/ha (4×),4
same,Classification and statistics of the grade of pesticide damage Grade 3,[1]; topramezone 100 g ai/ha (4×),12
same,Scores,[1]; topramezone 100 g ai/ha (4×),92
same,Resistance evaluation,[2]; isoxaflutole 35 g ai/ha,Poorly
same,Scores,[2]; isoxaflutole 35 g ai/ha,56
same,Classification and statistics of the grade of pesticide damage Grade 0,[2]; isoxaflutole 35 g ai/ha,0
same,Classification and statistics of the grade of pesticide damage Grade 1,[2]; isoxaflutole 35 g ai/ha,9
same,Classification and statistics of the grade of pesticide damage Grade 2,[2]; isoxaflutole 35 g ai/ha,3
same,Classification and statistics of the grade of pesticide damage Grade 3,[2]; isoxaflutole 35 g ai/ha,4
same,Resistance evaluation,[2]; isoxaflutole 70 g ai/ha,Non-resistant
same,Scores,[2]; isoxaflutole 70 g ai/ha,100
same,Classification and statistics of the grade of pesticide damage Grade 0,[2]; isoxaflutole 70 g ai/ha,0
same,Classification and statistics of the grade of pesticide damage Grade 1,[2]; isoxaflutole 70 g ai/ha,0
same,Classification and statistics of the grade of pesticide damage Grade 2,[2]; isoxaflutole 70 g ai/ha,0
same,Classification and statistics of the grade of pesticide damage Grade 3,[2]; isoxaflutole 70 g ai/ha,16
same,Resistance evaluation,[3]; mesotrione 52.5 g ai/ha,Poorly resistant
same,Scores,[3]; mesotrione 52.5 g ai/ha,63
same,Classification and statistics of the grade of pesticide damage Grade 0,[3]; mesotrione 52.5 g ai/ha,0
same,Classification and statistics of the grade of pesticide damage Grade 1,[3]; mesotrione 52.5 g ai/ha,5
same,Classification and statistics of the grade of pesticide damage Grade 2,[3]; mesotrione 52.5 g ai/ha,8
same,Classification and statistics of the grade of pesticide damage Grade 3,[3]; mesotrione 52.5 g ai/ha,3
same,Resistance evaluation,[3]; mesotrione 105 g ai/ha,Non-resistant
same,Scores,[3]; mesotrione 105 g ai/ha,100
same,Classification and statistics of the grade of pesticide damage Grade 0,[3]; mesotrione 105 g ai/ha,0
same,Classification and statistics of the grade of pesticide damage Grade 1,[3]; mesotrione 105 g ai/ha,0
same,Classification and statistics of the grade of pesticide damage Grade 2,[3]; mesotrione 105 g ai/ha,0
same,Classification and statistics of the grade of pesticide damage Grade 3,[3]; mesotrione 105 g ai/ha,16
